Experimental data: patent US5493008A, “Two non-contiguous regions contribute to nidogen binding to a single EGF-like motif of the laminin γ1 chain” (The University Of Virginia Patent Foundation, priority 1994, dated 1996)
Like-named read-outs stand apart in the source and are kept apart here. Blank lines part the entries; values can stand above or below the molecule they belong to. Where no end group is shown, it is not given here. The star is where a group is joined. Succinimide(1-Et,3-yl) = CCN1C(=O)CC(*)C1=O

What was measured:
[1] = target: T1, recombinant nidogen (Mus musculus (Mouse), UniProt P10493); assay: radioligand competition assay: inhibitor varied, 0.2 nM recombinant nidogen, 125I-laminin fragment P1
T1 sequence: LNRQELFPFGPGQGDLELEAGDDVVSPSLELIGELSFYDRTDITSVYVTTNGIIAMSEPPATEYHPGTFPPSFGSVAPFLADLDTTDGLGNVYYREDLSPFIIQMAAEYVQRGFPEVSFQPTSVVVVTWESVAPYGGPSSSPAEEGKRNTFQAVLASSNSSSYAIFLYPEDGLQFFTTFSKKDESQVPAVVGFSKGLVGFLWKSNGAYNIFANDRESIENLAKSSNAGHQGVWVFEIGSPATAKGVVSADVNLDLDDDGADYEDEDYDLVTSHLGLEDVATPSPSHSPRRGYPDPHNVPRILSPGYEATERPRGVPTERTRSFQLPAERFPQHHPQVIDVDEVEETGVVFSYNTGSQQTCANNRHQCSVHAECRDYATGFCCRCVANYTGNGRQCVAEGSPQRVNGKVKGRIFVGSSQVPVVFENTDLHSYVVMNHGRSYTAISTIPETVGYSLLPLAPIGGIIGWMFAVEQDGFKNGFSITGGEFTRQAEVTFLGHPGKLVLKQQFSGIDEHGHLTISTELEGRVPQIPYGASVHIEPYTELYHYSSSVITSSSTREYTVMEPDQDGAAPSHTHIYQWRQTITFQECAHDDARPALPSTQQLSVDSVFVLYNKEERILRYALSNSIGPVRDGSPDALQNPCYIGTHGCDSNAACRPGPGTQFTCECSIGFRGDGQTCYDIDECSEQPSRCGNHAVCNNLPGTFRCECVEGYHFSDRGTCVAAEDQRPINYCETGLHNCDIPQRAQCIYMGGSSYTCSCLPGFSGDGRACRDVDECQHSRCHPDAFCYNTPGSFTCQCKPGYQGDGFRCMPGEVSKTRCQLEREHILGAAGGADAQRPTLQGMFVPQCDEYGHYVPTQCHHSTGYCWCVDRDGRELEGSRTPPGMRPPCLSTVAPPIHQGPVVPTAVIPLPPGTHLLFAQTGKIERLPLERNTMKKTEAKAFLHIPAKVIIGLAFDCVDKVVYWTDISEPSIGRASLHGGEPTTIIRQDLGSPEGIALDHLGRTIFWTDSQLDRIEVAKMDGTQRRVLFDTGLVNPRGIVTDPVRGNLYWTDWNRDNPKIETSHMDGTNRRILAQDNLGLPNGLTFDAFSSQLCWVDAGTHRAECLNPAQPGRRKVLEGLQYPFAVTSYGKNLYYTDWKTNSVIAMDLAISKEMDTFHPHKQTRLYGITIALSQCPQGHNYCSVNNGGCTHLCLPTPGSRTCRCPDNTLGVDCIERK
Method: (§1) A radioligand competition assay was used for measurement of relative binding affinities (Mann K. et al. (1988), Eur. J. Biochem., 178, 71–80; Fox, J. W. et al. (1991), EMBO J., 10, 3137–3146). A fixed concentration of recombinant nidogen (0.2 nM) was incubated overnight at 4° C. with inhibitors at varying concentrations, followed by the addition of ^125I-labeled laminin fragment P1 (0.01 nM; 10,000–20,000 c.p.m.) for the same incubation period. Bound and non-bound fragment P1 was then separated by antibodies against nidogen.

[2] = target: T1, recombinant nidogen; assay: as above; remark: listed apart in the source
Method: as §1

[3] = target: T1, recombinant nidogen; assay: radioligand competition assay, synthetic heptapeptide variant
Method: as §1

[4] = target: T1, recombinant nidogen; assay: radioligand competition assay: inhibitor varied, 0.2 nM recombinant nidogen, 125I-laminin fragment P1; remark: listed apart in the source
Method: as §1

[5] = target: T2, nidogen (Mus musculus, UniProt P10493); assay: Radioligand competition assay: inhibition of 125I-laminin fragment P1 binding to nidogen
T2 sequence (P10493 29-1245): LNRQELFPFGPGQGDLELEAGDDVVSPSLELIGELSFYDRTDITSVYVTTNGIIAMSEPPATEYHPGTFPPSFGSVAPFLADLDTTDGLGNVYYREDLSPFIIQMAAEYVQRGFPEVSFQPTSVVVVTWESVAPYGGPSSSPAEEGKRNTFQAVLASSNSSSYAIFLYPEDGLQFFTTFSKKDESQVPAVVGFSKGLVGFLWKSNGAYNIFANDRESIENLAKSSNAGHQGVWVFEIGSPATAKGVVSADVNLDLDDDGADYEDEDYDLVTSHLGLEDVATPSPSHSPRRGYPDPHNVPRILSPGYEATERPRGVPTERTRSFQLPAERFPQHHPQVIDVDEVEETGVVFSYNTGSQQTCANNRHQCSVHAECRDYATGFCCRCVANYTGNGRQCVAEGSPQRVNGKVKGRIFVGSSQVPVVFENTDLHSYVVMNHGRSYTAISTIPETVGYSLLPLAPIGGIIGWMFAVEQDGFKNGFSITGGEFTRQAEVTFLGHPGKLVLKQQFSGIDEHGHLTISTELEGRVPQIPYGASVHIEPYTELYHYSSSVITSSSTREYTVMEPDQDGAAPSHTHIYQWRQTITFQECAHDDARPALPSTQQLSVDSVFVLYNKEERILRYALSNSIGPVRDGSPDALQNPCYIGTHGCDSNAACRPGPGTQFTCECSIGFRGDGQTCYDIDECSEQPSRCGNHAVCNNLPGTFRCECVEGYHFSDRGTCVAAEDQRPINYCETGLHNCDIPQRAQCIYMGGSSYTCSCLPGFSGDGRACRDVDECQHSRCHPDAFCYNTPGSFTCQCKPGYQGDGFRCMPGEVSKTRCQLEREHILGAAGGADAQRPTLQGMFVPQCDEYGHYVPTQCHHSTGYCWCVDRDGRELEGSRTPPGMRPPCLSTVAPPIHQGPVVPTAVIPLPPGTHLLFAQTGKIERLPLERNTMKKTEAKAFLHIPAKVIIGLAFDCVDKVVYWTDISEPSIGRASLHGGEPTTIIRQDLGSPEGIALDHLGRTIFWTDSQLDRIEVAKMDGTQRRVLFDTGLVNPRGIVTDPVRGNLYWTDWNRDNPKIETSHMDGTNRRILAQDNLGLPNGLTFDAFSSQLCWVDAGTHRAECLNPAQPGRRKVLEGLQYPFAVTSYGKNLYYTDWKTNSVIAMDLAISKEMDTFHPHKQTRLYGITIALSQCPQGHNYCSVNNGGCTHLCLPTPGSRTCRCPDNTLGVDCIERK
Method: as §1, with “71-80;” for “71–80;”, “3137-3146).” for “3137–3146).”, “^125 I-labeled” for “^125I-labeled”, “10,000-20,000” for “10,000–20,000”, “nidogen. Competitor concentrations causing 50% inhibition (IC50) were determined from dose-response profiles. […] IC50 values compared from different assays were normalized to a single fragment P1 value.” for “nidogen.”

[6] = target: T1, recombinant nidogen; assay: radioligand competition assay
Method: as §1

Molecule: NIDPNAVGN [NIDPNAVGN (S, 798-806)]
IC50 [1]: 600 nM

Molecule: DNIDPNAVGNCNRLTGECL [E1, 797-815]
IC50 [1]: 530 nM

Molecule: PCQCN [E3, 792-796]
binding result [1]: no binding (tested: >96,000 nM)

Molecule: AVGNCNR [Th1, 803-809]
binding result [1]: no binding (tested: >30,000 nM)

Molecule: NIDPNVV
fold decrease in activity against the heptapeptide NIDPNAV [3]: 16 fold | IC50 [4]: 16000 nM

Molecule: NVDPNAV
IC50 [4]: 1200 nM

Molecule: NVDPNAS
binding result [1]: no binding (tested: >160,000 nM)

Molecule: NIDPNAV [heptapeptide NIDPNAV (S, 798-804)]
IC50 [1]: 800 nM | IC50 [4]: 900 nM

Next, values leading:

IC50 [2]: 520 nM
B1: γ1III4ab3cd, reduced (other)
chain: PC(Succinimide(1-Et,3-yl))QC(Succinimide(1-Et,3-yl))NDNIDPNAVGNC(Succinimide(1-Et,3-yl))NRLTGEC(Succinimide(1-Et,3-yl))LKC(Succinimide(1-Et,3-yl))PTGTAGKRC(Succinimide(1-Et,3-yl))ELC(Succinimide(1-Et,3-yl))DDGYFGDPLGSNGPVRLC(Succinimide(1-Et,3-yl))R

binding result [1]: no binding (tested: >290,000 nM)
Molecule: NVDPSAS

IC50 ([5]; Table IV, recombinant mutants and chimeric structures of γ1III4, read-out: IC50 (inhibitory activity for laminin-nidogen binding)): > 3200 nM | inhibitory activity in words ([5]; laminin-nidogen binding competition): without measurable activity
B2: γ1III3-5Δ4: recombinant deletion mutant joining repeats 3 and 5, lacking EGF-like repeat 4 (protein)
chain: PCPCPGGSSCAIVPKTKEVVCTHCPTGTAGKRCELCDDGYFGDPLGSNGPVRLCRACACNPYGTVQQQSSCNPVTGQCQCLPHVSGRDCGTCDPGYYNLQSGQGCE

fold higher IC50 than fragment P1 [6]: 5000 fold | IC50 [1]: 380 nM | IC50 [2]: 270 nM
Molecule: PCQCNDNTDPNAVGNCNRLTGECL (disulfide (positions not given here)) [synthetic loop a,b, oxidized (792-815)]

IC50 [2]: 0.05 nM
B3: γ1III4 (other)
chain: PCQCNDNIDPNAVGNCNRLTGECLKCIYNTAGFYCDRCKEGFFGNPLAPNPADKCK
modifications: disulfide (positions not given here); not fully specified (bridges); also: four disulfide-bonded loops, pairing not given here

IC50 [2]: 0.06 nM
B4: γ1III4Y825-A (other)
chain: PCQCNDNIDPNAVGNCNRLTGECLKCIYNTAGFACDRCKEGFFGNPLAPNPADKCK

IC50 [2]: 1000 nM
B5: γ1III4D800-N (other)
chain: PCQCNDNINPNAVGNCNRLTGECLKCIYNTAGFYCDRCKEGFFGNPLAPNPADKCK
